Publication PMC3365889

Key:
[1] = target: T1, human synaptogyrin 1, transcript variant 1b, construct 5 (N-terminal His tag with TEV cleavage site) (human), O43759; experiment: SDS-PAGE (SDS-resistant dimer); SDS-PAGE of fractions from the large-scale IMAC purification in DDM
T1 chain: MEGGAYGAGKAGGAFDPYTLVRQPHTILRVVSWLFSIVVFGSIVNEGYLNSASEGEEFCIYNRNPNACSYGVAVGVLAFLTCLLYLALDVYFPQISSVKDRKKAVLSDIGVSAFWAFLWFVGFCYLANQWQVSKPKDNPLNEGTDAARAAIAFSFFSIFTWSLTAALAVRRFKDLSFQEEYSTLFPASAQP

[2] = target: T1, human synaptogyrin 1, transcript …; experiment: cross-linking; crude E. coli membranes, 2 mM DMS, room temperature, quenched with 200 mM Tris at time points; SDS-PAGE and Western blot with His probe
[3] = target: T1, human synaptogyrin 1, transcript …; experiment: cross-linking; DDM-solubilised and purified synaptogyrin 1, 0.25 mM DSS, room temperature, quenched with 200 mM Tris at time points; SDS-PAGE and Western blot with His probe
[4] = target: T1, human synaptogyrin 1, transcript …; experiment: cross-linking; Triton X-100-solubilised and purified synaptogyrin 1, 1 mM glutaraldehyde, room temperature, quenched with 200 mM Tris at time points; SDS-PAGE and Western blot with His probe

B1: human synaptogyrin 1, transcript variant 1b, construct 5 (N-terminal His tag with TEV cleavage site), O43759-2 1-191 (natural protein)
chain: MEGGAYGAGKAGGAFDPYTLVRQPHTILRVVSWLFSIVVFGSIVNEGYLNSASEGEEFCIYNRNPNACSYGVAVGVLAFLTCLLYLALDVYFPQISSVKDRKKAVLSDIGVSAFWAFLWFVGFCYLANQWQVSKPKDNPLNEGTDAARAAIAFSFFSIFTWSLTAALAVRRFKDLSFQEEYSTLFPASAQP
stoichiometry N [1]: 2 | stoichiometry N [2]: > 4 | stoichiometry N [3]: > 4 | stoichiometry N [4]: > 4
